Experimental findings from patent US20230056252A1 (Gilead, published 2023) are described below.

Numbering of substitutions follows the chain as printed.

For assay [1], the target named is T1, CD3 expressed on cell-surface of primary human T cells (human, UniProt P07766 23-207; P04234 22-171).
T1 construct: also called cell-surface CD3; human CD3
The experiment in a line: flow cytometry on PBMCs, % anti-huIgG+ CD4+ cells, donor hu 151.

Assay [2] addresses T1, CD3 expressed on cell-surface of …. The experiment in a line: flow cytometry on PBMCs, % anti-huIgG+ CD4+ cells, donor hu 340. (Flow cytometry measures light scatter and fluorescence of single cells or particles in a stream.)
Description: (§1) Briefly, PBMCs from healthy human donors and healthy rhesus or cynomolgus monkey donors were incubated with different concentrations of HIV×CD3 bispecific molecules for 1 hour at RT. […] Cells were then washed, fixed/permeabilized, and analyzed on BD LSRFortessa. The percentage of α-huIgG-APC-positive CD4+ and CD8+ T cells and the mFI of the α-huIgG-APC of CD4+ and CD8+ cells were collected, and data analyzed using GraphPad Prism.
For assay [3] the target is unchanged. The experiment in a line: flow cytometry on PBMCs, % anti-huIgG+ CD8+ cells, donor hu 151.
Description: as §1
For assay [4] the target is unchanged. Description: flow cytometry on PBMCs, % anti-huIgG+ CD8+ cells, donor hu 340.
Description: as §1
Assay [5] deals with CD3 on rhesus monkey T cells in PBMCs (rhesus monkey). Description: flow cytometry on PBMCs, % anti-huIgG+ CD4+ cells, donor rh 3483.
For assay [6] the target is unchanged. The experiment in a line: flow cytometry on PBMCs, % anti-huIgG+ CD4+ cells, donor rh 3563.
Assay [7] has the same target. Description: flow cytometry on PBMCs, % anti-huIgG+ CD8+ cells, donor rh 3483.
The target is the same in assay [8]. The experiment in a line: flow cytometry on PBMCs, % anti-huIgG+ CD8+ cells, donor rh 3563.
Assay [9] addresses T1, CD3 expressed on cell-surface of …. Description: flow cytometry competition vs murine SP34-AF488 on human T cells, n = 1.
Description: (§2) Binding of humanized SP34 Fab variants to CD3 expressed on cell-surface of primary human T cells was evaluated in a flow cytometry-based competition assay.
For assay [10] the target is unchanged. The experiment in a line: flow cytometry competition vs murine SP34-AF488 on human T cells, n = 2.
Description: as §2
Assay [11] shares this target. Description: flow cytometry competition vs murine SP34-AF488 on human T cells, average.
Description: as §2
The target is the same in assay [12]. The experiment in a line: flow cytometry competition vs murine SP34-AF488 on human T cells, n = 1. The source holds these as a separate data set.
Description: as §2
(§3) A second round of huSP34 Fab variants were characterized using the same flow cytometry-based competition assay as described above.
For assay [13] the target is unchanged. Description: flow cytometry competition vs murine SP34-AF488 on human T cells, n = 2. The source holds these as a separate data set.
Description: as §2, §3
Assay [14] shares this target. The experiment in a line: flow cytometry competition vs murine SP34-AF488 on human T cells, average. This is another data set of the same source.
Description: as §2, §3

Chain of CD3 on rhesus monkey T cells in PBMCs (rhesus monkey) (P16003 26-458): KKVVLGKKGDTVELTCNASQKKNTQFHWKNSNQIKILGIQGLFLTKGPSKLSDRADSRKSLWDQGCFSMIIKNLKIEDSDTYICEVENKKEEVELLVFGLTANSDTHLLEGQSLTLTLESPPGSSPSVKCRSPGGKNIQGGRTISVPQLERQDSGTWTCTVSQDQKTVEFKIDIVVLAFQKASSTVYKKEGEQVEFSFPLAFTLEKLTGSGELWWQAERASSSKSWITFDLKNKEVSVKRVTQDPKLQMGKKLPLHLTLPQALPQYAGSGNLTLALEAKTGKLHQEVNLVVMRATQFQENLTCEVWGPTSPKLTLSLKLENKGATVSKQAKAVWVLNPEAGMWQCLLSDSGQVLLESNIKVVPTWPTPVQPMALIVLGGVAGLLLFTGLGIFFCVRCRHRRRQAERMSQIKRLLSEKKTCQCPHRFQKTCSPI
T1 sequence (P07766 23-207 limits assumed, chain 1 of 2): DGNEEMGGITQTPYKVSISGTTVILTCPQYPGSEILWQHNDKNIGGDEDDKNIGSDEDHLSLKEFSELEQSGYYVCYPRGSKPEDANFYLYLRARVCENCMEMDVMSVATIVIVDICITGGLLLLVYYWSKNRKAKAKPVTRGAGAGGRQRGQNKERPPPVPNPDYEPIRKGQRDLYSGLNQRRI
T1 sequence (P04234 22-171 limits assumed, chain 2 of 2): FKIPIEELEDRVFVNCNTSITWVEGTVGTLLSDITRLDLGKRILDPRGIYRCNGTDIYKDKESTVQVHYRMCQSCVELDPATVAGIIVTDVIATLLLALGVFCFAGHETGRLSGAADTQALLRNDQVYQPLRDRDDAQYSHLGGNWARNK

B1: hPGT121.66 AAS + W/huSP34.3.8 scFv AAS + SAV + R (bispecific antibody, human IgG1, lambda, L234A L235A)
chain: EVQLVESGGGLVQPGGSLRLSCAASGFTFNTYAMNWVRQAPGKGLEWVGRIRSKYNNYATYYADSVKGRFTISRDDSKNSLYLQMNSLRTEDTAVYYCVRHGNFGHSYVSWFAYWGQGTLVTVSSGGGGSGGGGSGGGGSGGGGSQAVVTQEPSLTVSPGGTVTLTCGSSTGAVTTGHYANWVQQKPGQAPRGLIGGTNKRAPGVPARFSGSLLGGKAALTISGAQPEDEAEYYCALWYSNRWVFGGGTKLTVLEPKSSDKTHTCPPCPAPEAAGGPSVFLFPPKPKDTLMISRTPEVTCVVVDVSHEDPEVKFNWYVDGVEVHNAKTKPREEQYNSTYRVVSVLTVLHQDWLNGKEYKCKVSNKALPASIEKTISKAKGQPREPQVYTLPPSREEMTKNQVSLSCAVKGFYPSDIAVEWESNGQPENNYKTTPPVLDSDGSFFLVSKLTVDKSRWQQGNVFSCSVMHEALHNRYTQKSLSLSPGK
heavy: QMQLQESGPGLVKPSETLSLTCSVSGASISDSYWSWIRRSPGKGLEWIGYVHKSGDTNYNPSLKSRVHLSLDTSKNQVSLSLTGVTAADSGKYYCARTLHGRRIYGIVAFNEWFTYFYMDVWGTGTQVTVSSASTKGPSVFPLAPSSKSTSGGTAALGCLVKDYFPEPVTVSWNSGALTSGVHTFPAVLQSSGLYSLSSVVTVPSSSLGTQTYICNVNHKPSNTKVDKKVEPKSCDKTHTCPPCPAPEAAGGPSVFLFPPKPKDTLMISRTPEVTCVVVDVSHEDPEVKFNWYVDGVEVHNAKTKPREEQYNSTYRVVSVLTVLHQDWLNGKEYKCKVSNKALPASIEKTISKAKGQPREPQVYTLPPSREEMTKNQVSLWCLVKGFYPSDIAVEWESNGQPENNYKTTPPVLDSDGSFFLYSKLTVDKSRWQQGNVFSCSVMHEALHNHYTQKSLSLSPGK
light: not shown
In general, EC50 refers to the concentration that produces a half-maximal response. As for B1, the EC50 was 0.03 µg/mL in assay [1]; 0.05 µg/mL in assay [2]; 0.04 µg/mL in assay [3]; 0.06 µg/mL in assay [4]; 0.02 µg/mL in [5]; 0.02 µg/mL in assay [6]. Moreover, the values for the EC50 in assay [7] and in [8] were 0.04 µg/mL and 0.08 µg/mL, respectively.

B2: huSP34.2.1 Fab-HF (Fab, V domains shown)
VH: EVQLVESGGGLVQPGGSLRLSCAASGFTFSTYAMNWVRQAPGKGLEWVGRIRSKYNNYATYYAASVKGRFTISRDDSKNSLYLQMNSLKTEDTAMYYCVRHGNFGNSYVSWFAVWGQGTLVTVSS
VL: QAVVTQEPSLTVSPGGTVTLTCRSSTGAVTTSNYANWVQQKPGQAPRGLIGGTNKRAPWTPARFSGSLIGDKAALTLSGAQPEDEAEYYCALWYSNLWVFGGGTKLTVL
What is called IC50 is the midpoint of a concentration-inhibition curve. For B2, the IC50 in assay [9] came out at 6.17 µg/mL; in assay [10] it was 3.68 µg/mL; in [11], 4.92 µg/mL.

B3: huSP34.11.9 Fab-HF (Fab, V domains shown)
VH: B2 VH with K89R, M95V, N106H, V114Y
VL: B2 VL with E7P, R23G, S32G, N33H, W59G, T60V, I69S, D71G, L77I
In the case of B3, the IC50 in assay [12] amounted to 0.57 µg/mL; in assay [13] it was 0.22 µg/mL; in [14], 0.4 µg/mL.

B4: huSP34.2.6 Fab-HF (Fab, V domains shown)
VH: B2 VH
VL: QAVVTQPPSLTVSPGGTVTLTCGSSTGAVTTGHYANWVQQKPGQAPRGLIGGTSNRAPGVPARFSGSLSGGKAALTISGAQPEDEAEYYCALWYSARWVFGGGTKLTVL
Take B4: the IC50 in assay [9] turned out to be 4.68 µg/mL; in assay [10], 3.4 µg/mL; in assay [11] it was 4.04 µg/mL.

B5: huSP34.3.2 Fab-HF (Fab, V domains shown)
VH: B2 VH with S30N, A64D, K89R, M95V, N106H, V114Y
VL: B2 VL with R23G, N54S, K55N, I69L, D71G
Take B5: the IC50 came to 11.9 µg/mL in assay [9], 6.44 µg/mL in assay [10] and 9.19 µg/mL in [11].

B6: huSP34.12.10 Fab-HF (Fab, V domains shown)
VH: B2 VH with G49A, K89R, M95V, N106H, V114Y
VL: B4 VL with S54N, N55K, A96N
With B6, the IC50 turned out to be 0.69 µg/mL in assay [12], 0.33 µg/mL in assay [13] and 0.51 µg/mL in assay [14].

B7: huSP34.11.10 Fab-HF (Fab, V domains shown)
VH: B2 VH with K89R, M95V, N106H, V114Y
VL: B4 VL with S54N, N55K, A96N
Consider B7, for which the IC50 was determined as 0.35 µg/mL in assay [12], 0.15 µg/mL in [13] and 0.25 µg/mL in [14].

B8: huSP34.12.9 Fab-HF (Fab, V domains shown)
VH: B2 VH with G49A, K89R, M95V, N106H, V114Y
VL: B4 VL with S54N, N55K, A96N, R97L
Take B8: the IC50 is 0.97 µg/mL in assay [12], 0.49 µg/mL in assay [13] and 0.73 µg/mL in assay [14].

B9: huSP34.3.5 Fab-HF (Fab, V domains shown)
VH: B2 VH with S30N, A64D, K89R, M95V, N106H, V114Y
VL: B4 VL with P7E, G59W, V60T, S69L, I77L
For B9, the IC50 in [9] is 12.9 µg/mL; in assay [10], 10 µg/mL; in [11], 11.4 µg/mL.

B10: huSP34.13.9 Fab-HF (Fab, V domains shown)
VH: B2 VH with S80T, K89R, M95V, N106H, V114Y
VL: B4 VL with S54N, N55K, A96N, R97L
Turning to B10, the IC50 in assay [12] worked out at 0.48 µg/mL; in assay [13] it was 0.25 µg/mL; in assay [14], 0.36 µg/mL.

B11: huSP34.2.2 Fab-HF (Fab, V domains shown)
VH: B2 VH
VL: B2 VL with R23G, N54S, K55N, I69L, D71G
As to B11, the IC50 in assay [9] is over 20 µg/mL; in assay [10] it was 16.6 µg/mL; in [11], 16.6 µg/mL.

B12: huSP34.12.7 Fab-HF (Fab, V domains shown)
VH: B2 VH with G49A, K89R, M95V, N106H, V114Y
VL: B2 VL with S32G, N33H, W59G, T60V, I69L, D71G, L77I
Consider B12, for which the figures for the IC50 in assay [12], in assay [13] and in assay [14] were 0.77 µg/mL, 0.39 µg/mL and 0.58 µg/mL, respectively.

B13: huSP34.12.8 Fab-HF (Fab, V domains shown)
VH: B2 VH with G49A, K89R, M95V, N106H, V114Y
VL: B4 VL with P7E, S54N, N55K, S69L, A96N
For the molecule B13, the IC50 in assay [12] was 0.57 µg/mL; in assay [13] it was 0.29 µg/mL; in assay [14], 0.43 µg/mL.

B14: huSP34.4.6 Fab-HF (Fab, V domains shown)
VH: B2 VH with K89R, M95V, N106H
VL: B4 VL
Consider B14, for which the IC50 in assay [9] was 18.5 µg/mL; in [10], 4.2 µg/mL; in assay [11], 11.4 µg/mL.

B15: huSP34.13.7 Fab-HF (Fab, V domains shown)
VH: B2 VH with S80T, K89R, M95V, N106H, V114Y
VL: B2 VL with S32G, N33H, W59G, T60V, I69L, D71G, L77I
Consider B15, for which the values for the IC50 in assay [12], in [13] and in assay [14] were 0.43 µg/mL, 0.18 µg/mL and 0.31 µg/mL, respectively.

B16: huSP34.4.1 Fab-HF (Fab, V domains shown)
VH: B2 VH with K89R, M95V, N106H
VL: B2 VL
As to B16, the IC50 stood at 9.57 µg/mL in assay [9], 5.9 µg/mL in [10] and 7.74 µg/mL in assay [11].

B17: huSP34.3.1 Fab-HF (Fab, V domains shown)
VH: B2 VH with S30N, A64D, K89R, M95V, N106H, V114Y
VL: B2 VL
In the case of B17, the IC50 in assay [9] was 3.56 µg/mL; in assay [10], 2.22 µg/mL; in assay [11], 2.89 µg/mL.

B18: huSP34.11.8 Fab-HF (Fab, V domains shown)
VH: B2 VH with K89R, M95V, N106H, V114Y
VL: B4 VL with P7E, S54N, N55K, S69L, A96N
In the case of B18, the results for the IC50 in [12], in [13] and in [14] were 0.3 µg/mL, 0.13 µg/mL and 0.22 µg/mL, respectively.

B19: mSP34 Fab-HF (Fab, V domains shown)
VH: EVKLLESGGGLVQPKGSLKLSCAASGFTFNTYAMNWVRQAPGKGLEWVARIRSKYNNYATYYADSVKDRFTISRDDSQSILYLQMNNLKTEDTAMYYCVRHGNFGNSYVSWFAYWGQGTLVTVSA
VL: QAVVTQESALTTSPGETVTLTCRSSTGAVTTSNYANWVQEKPDHLFTGLIGGTNKRAPGVPARFSGSLIGDKAALTITGAQTEDEAIYFCALWYSNLWVFGGGTKLTVLG
notes: also called mSP34 chimeric Fab
In the case of B19, the IC50 came to 0.7 µg/mL in assay [11] and 0.68 µg/mL in assay [14].
